Patent US20210054049A1 (MERUS N V, published 2021)

target: c-MET (UniProt P08581 25-932); assay: ELISA on c-MET coated plates
Sequence (P08581 25-932 limits assumed): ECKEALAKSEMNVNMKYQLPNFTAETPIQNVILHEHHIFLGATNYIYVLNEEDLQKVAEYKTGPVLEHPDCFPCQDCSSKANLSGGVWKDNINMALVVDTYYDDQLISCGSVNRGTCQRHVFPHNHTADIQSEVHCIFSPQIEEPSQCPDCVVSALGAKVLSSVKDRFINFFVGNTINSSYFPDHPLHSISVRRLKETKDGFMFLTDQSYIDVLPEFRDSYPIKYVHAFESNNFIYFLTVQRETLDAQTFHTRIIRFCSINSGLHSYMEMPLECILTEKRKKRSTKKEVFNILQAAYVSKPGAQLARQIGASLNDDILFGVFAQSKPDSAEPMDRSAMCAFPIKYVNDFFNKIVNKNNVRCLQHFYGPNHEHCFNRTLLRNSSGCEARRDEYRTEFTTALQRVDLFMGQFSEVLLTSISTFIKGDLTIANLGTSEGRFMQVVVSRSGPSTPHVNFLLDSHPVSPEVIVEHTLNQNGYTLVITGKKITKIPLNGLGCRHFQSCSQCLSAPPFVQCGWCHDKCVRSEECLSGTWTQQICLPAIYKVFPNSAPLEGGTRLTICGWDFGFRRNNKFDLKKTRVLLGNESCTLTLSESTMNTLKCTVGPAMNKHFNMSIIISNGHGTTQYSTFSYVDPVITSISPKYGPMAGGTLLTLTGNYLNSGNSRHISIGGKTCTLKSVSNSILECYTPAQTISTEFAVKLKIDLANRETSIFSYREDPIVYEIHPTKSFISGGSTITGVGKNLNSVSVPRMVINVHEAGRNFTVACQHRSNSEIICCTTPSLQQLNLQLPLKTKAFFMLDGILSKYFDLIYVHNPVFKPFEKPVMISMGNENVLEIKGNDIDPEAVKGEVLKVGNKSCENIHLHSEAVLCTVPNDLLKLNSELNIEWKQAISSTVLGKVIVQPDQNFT

| Binder | binding result |
| --- | --- |
| PB27538p43 (bispecific antibody, also called PB27538p44; PB27538p33) heavy (part 1 of 2) 1: EVQLVETGGGVVQPGRSLRLSCAASGFTFSQYAMHWVRQAPGKGLEWVAIISHDERNKYYVDSGMGRFTISRDNSKNTLFLQMNSLRSEDTAVYYCARDMRKGGYYYGFDVWGQGTTVTVSSASTKGPSVFPLAPSSKSTSGGTAALGCLVKDYFPEPVTVSWNSGALTSGVHTFPAVLQSSGLYSLSSVVTVPSSSLGTQTYICNVNHKPSNTKVDK heavy (part 2 of 2) 1: not shown heavy (part 1 of 2) 2: not shown heavy (part 2 of 2) 2: not shown light: not shown | binds |
| PB27538p50 (bispecific antibody, also called PB27538p40; MG1516C3209 x MG3462C3218) heavy (part 1 of 2) 1: EVQLVETGGGVVQPGRSLRLSCAASGFTFSQYAMHWVRQAPGKGLEWVAIISHDERNKYYVDSGMGRFTISRDNSKNTLFLQMNSLRSEDTAVYYCARDMRKGGYYYGFDVWGQGTTVTVSSASTKGPSVFPLAPSSKSTSGGTAALGCLVKDYFPEPVTVSWNSGALTSGVHTFPAVLQSSGLYSLSSVVTVPSSSLGTQTYICNVNHKPSNTKVDK heavy (part 2 of 2) 1: not shown heavy (part 1 of 2) 2: not shown heavy (part 2 of 2) 2: not shown light: not shown | binds |
| PB27538p49 (bispecific antibody, also called PB27538p39; MG1516C3209 x MG3462C3217) heavy (part 1 of 2) 1: EVQLVETGGGVVQPGRSLRLSCAASGFTFSQYAMHWVRQAPGKGLEWVAIISHDERNKYYVDSGMGRFTISRDNSKNTLFLQMNSLRSEDTAVYYCARDMRKGGYYYGFDVWGQGTTVTVSSASTKGPSVFPLAPSSKSTSGGTAALGCLVKDYFPEPVTVSWNSGALTSGVHTFPAVLQSSGLYSLSSVVTVPSSSLGTQTYICNVNHKPSNTKVDK heavy (part 2 of 2) 1: not shown heavy (part 1 of 2) 2: not shown heavy (part 2 of 2) 2: not shown light: not shown | binds |
| PB27538p46 (bispecific antibody, also called PB27538p36; MG1516C3211 x MG3462C3215) heavy (part 1 of 2) 1: EVQLVETGGGVVQPGRSLRLSCAASGFTFSQYAMHWVRQAPGKGLEWVAIISHDERNKYYVDSGMGRFTISRDNSKNTLFLQMNSLRSEDTAVYYCARDMRKGGYYYGFDVWGQGTTVTVSSASTKGPSVFPLAPSSKSTSGGTAALGCLVKDYFPEPVTVSWNSGALTSGVHTFPAVLQSSGLYSLSSVVTVPSSSLGTQTYICNVNHKPSNTKVDK heavy (part 2 of 2) 1: not shown heavy (part 1 of 2) 2: not shown heavy (part 2 of 2) 2: not shown light: not shown | binds |
| PB27538p52 (bispecific antibody, also called PB27538p42; MG1516C3209 x MG3462C3221) heavy (part 1 of 2) 1: EVQLVETGGGVVQPGRSLRLSCAASGFTFSQYAMHWVRQAPGKGLEWVAIISHDERNKYYVDSGMGRFTISRDNSKNTLFLQMNSLRSEDTAVYYCARDMRKGGYYYGFDVWGQGTTVTVSSASTKGPSVFPLAPSSKSTSGGTAALGCLVKDYFPEPVTVSWNSGALTSGVHTFPAVLQSSGLYSLSSVVTVPSSSLGTQTYICNVNHKPSNTKVDK heavy (part 2 of 2) 1: not shown heavy (part 1 of 2) 2: not shown heavy (part 2 of 2) 2: not shown light: not shown | binds |
| PB27538p45 (bispecific antibody, also called PB27538p35; MG1516C3210 x MG3462C3215) heavy (part 1 of 2) 1: EVQLVETGGGVVQPGRSLRLSCAASGFTFSQYAMHWVRQAPGKGLEWVAIISHDERNKYYVDSGMGRFTISRDNSKNTLFLQMNSLRSEDTAVYYCARDMRKGGYYYGFDVWGQGTTVTVSSASTKGPSVFPLAPSSKSTSGGTAALGCLVKDYFPEPVTVSWNSGALTSGVHTFPAVLQSSGLYSLSSVVTVPSSSLGTQTYICNVNHKPSNTKVDK heavy (part 2 of 2) 1: not shown heavy (part 1 of 2) 2: not shown heavy (part 2 of 2) 2: not shown light: not shown | binds |
| PB27538p48 (bispecific antibody, also called PB27538p38; MG1516C3209 x MG3462C3216) heavy (part 1 of 2) 1: EVQLVETGGGVVQPGRSLRLSCAASGFTFSQYAMHWVRQAPGKGLEWVAIISHDERNKYYVDSGMGRFTISRDNSKNTLFLQMNSLRSEDTAVYYCARDMRKGGYYYGFDVWGQGTTVTVSSASTKGPSVFPLAPSSKSTSGGTAALGCLVKDYFPEPVTVSWNSGALTSGVHTFPAVLQSSGLYSLSSVVTVPSSSLGTQTYICNVNHKPSNTKVDK heavy (part 2 of 2) 1: not shown heavy (part 1 of 2) 2: not shown heavy (part 2 of 2) 2: not shown light: not shown | binds |
| PB27538p51 (bispecific antibody, also called PB27538p41; MG1516C3209 x MG3462C3219) heavy (part 1 of 2) 1: EVQLVETGGGVVQPGRSLRLSCAASGFTFSQYAMHWVRQAPGKGLEWVAIISHDERNKYYVDSGMGRFTISRDNSKNTLFLQMNSLRSEDTAVYYCARDMRKGGYYYGFDVWGQGTTVTVSSASTKGPSVFPLAPSSKSTSGGTAALGCLVKDYFPEPVTVSWNSGALTSGVHTFPAVLQSSGLYSLSSVVTVPSSSLGTQTYICNVNHKPSNTKVDK heavy (part 2 of 2) 1: not shown heavy (part 1 of 2) 2: not shown heavy (part 2 of 2) 2: not shown light: not shown | binds |
